Experimental data from PMC5415409.

Target: Growth Factor Receptor-bound 2 (GRB2), endogenous in HEK cells (human (endogenous in HEK)) (UniProt P62993)
Experiment: co-IP

Sequence of Growth Factor Receptor-bound 2 (GRB2), endogenous in HEK cells (human (endogenous in HEK)) (P62993 whole entry): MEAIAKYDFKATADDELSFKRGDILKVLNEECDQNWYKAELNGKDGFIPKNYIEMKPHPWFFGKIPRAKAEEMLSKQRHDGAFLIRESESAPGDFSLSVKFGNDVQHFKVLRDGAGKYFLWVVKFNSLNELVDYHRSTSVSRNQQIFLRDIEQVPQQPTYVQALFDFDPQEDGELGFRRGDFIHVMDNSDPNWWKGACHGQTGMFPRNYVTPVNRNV

Q: How did the densitometry ratio SWELL1^Δ91/+35/GRB2 in the GRB2 immunoprecipitate turn out when “SWELL1^Δ91/+35 mutant, transiently expressed in HEK cells (natural protein)” was run?
A: The densitometry ratio SWELL1^Δ91/+35/GRB2 in the GRB2 immunoprecipitate was 0.07.
